B1: DNA polymerase delta small subunit (Saccharomyces cerevisiae), P46957 (parent)
chain: MDALLTKFNEDRSLQDENLSQPRTRVRIVDDNLYNKSNPFQLCYKKRDYGSQYYHIYQYRLKTFRERVLKECDKRWDAGFTLNGQLVLKKDKVLDIQGNQPCWCVGSIYCEMKYKPNVLDEVINDTYGAPDLTKSYTDKEGGSDEIMLEDESGRVLLVGDFIRSTPFITGVVVGILGMEAEAGTFQVLDICYPTPLPQNPFPAPIATCPTRGKIALVSGLNLNNTSPDRLLRLEILREFLMGRINNKIDDISLIGRLLICGNSVDFDIKSVNKDELMISLTEFSKFLHNILPSISVDIMPGTNDPSDKSLPQQPFHKSLFDKSLESYFNGSNKEILNLVTNPYEFSYNGVDVLAVSGKNINDICKYVIPSNDNGESENKVEEGESNDFKDDIEHRLDLMECTMKWQNIAPTAPDTLWCYPYTDKDPFVLDKWPHVYIVANQPYFGTRVVEIGGKNIKIISVPEFSSTGMIILLDLETLEAETVKIDI
partner: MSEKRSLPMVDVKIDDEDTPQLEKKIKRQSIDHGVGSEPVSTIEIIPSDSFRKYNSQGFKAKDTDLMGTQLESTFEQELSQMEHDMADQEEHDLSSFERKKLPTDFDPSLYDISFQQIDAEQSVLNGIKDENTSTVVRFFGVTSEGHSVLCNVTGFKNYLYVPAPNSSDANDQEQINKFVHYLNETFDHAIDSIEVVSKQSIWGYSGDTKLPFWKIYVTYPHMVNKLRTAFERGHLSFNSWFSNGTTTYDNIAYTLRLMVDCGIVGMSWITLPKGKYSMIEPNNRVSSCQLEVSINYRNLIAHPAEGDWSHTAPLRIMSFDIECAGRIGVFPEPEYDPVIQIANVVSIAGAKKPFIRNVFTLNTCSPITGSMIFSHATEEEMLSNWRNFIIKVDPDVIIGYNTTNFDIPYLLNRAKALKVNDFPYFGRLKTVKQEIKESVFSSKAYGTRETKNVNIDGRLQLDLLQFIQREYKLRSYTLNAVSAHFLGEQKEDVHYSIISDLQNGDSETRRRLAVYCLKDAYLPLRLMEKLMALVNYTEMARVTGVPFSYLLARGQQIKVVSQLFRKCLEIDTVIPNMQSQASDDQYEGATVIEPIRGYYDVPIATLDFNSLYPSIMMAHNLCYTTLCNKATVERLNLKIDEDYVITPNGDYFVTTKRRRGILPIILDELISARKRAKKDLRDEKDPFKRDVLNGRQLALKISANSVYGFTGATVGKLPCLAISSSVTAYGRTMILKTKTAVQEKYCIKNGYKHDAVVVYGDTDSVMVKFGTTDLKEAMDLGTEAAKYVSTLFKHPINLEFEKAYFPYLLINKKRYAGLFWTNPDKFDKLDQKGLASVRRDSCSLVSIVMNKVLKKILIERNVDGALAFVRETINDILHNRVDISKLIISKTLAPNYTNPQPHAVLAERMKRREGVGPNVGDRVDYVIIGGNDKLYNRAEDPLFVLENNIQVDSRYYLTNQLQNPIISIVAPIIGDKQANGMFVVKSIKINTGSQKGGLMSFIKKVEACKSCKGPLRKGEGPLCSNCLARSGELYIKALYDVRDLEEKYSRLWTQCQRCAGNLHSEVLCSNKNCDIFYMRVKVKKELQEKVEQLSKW
B2: DNA polymerase delta catalytic subunit (Schizosaccharomyces pombe (strain ATCC 38366 / 972)), P30316 (parent)
chain: MTDRSSNEGVVLNKENYPFPRRNGSIHGEITDVKRRRLSERNGYGDKKGSSSKEKTSSFEDELAEYASQLDQDEIKSSKDQQWQRPALPAINPEKDDIYFQQIDSEEFTEGSVPSIRLFGVTDNGNSILVHVVGFLPYFYVKAPVGFRPEMLERFTQDLDATCNGGVIDHCIIEMKENLYGFQGNEKSPFIKIFTTNPRILSRARNVFERGEFNFEELFPVGVGVTTFESNTQYLLRFMIDCDVVGMNWIHLPASKYQFRYQNRVSNCQIEAWINYKDLISLPAEGQWSKMAPLRIMSFDIECAGRKGVFPDPSIDPVIQIASIVTQYGDSTPFVRNVFCVDTCSQIVGTQVYEFQNQAEMLSSWSKFVRDVDPDVLIGYNICNFDIPYLLDRAKSLRIHNFPLLGRIHNFFSVAKETTFSSKAYGTRESKTTSIPGRLQLDMLQVMQRDFKLRSYSLNAVCSQFLGEQKEDVHYSIITDLQNGTADSRRRLAIYCLKDAYLPQRLMDKLMCFVNYTEMARVTGVPFNFLLARGQQIKVISQLFRKALQHDLVVPNIRVNGTDEQYEGATVIEPIKGYYDTPIATLDFSSLYPSIMQAHNLCYTTLLDSNTAELLKLKQDVDYSVTPNGDYFVKPHVRKGLLPIILADLLNARKKAKADLKKETDPFKKAVLDGRQLALKVSANSVYGFTGATNGRLPCLAISSSVTSYGRQMIEKTKDVVEKRYRIENGYSHDAVVIYGDTDSVMVKFGVKTLPEAMKLGEEAANYVSDQFPNPIKLEFEKVYFPYLLISKKRYAGLFWTRTDTYDKMDSKGIETVRRDNCPLVSYVIDTALRKMLIDQDVEGAQLFTKKVISDLLQNKIDMSQLVITKALSKTDYAAKMAHVELAERMRKRDAGSAPAIGDRVAYVIIKGAQGDQFYMRSEDPIYVLENNIPIDAKYYLENQLSKPLLRIFEPILGEKASSLLHGDHTRTISMAAPSVGGIMKFAVKVETCLGCKAPIKKGKTALCENCLNRSAELYQRQVAQVNDLEVRFARLWTQCQRCQGSMHQDVICTSRDCPIFYMRIAEHKKLQQSVDLLKRFDEMSW
partner: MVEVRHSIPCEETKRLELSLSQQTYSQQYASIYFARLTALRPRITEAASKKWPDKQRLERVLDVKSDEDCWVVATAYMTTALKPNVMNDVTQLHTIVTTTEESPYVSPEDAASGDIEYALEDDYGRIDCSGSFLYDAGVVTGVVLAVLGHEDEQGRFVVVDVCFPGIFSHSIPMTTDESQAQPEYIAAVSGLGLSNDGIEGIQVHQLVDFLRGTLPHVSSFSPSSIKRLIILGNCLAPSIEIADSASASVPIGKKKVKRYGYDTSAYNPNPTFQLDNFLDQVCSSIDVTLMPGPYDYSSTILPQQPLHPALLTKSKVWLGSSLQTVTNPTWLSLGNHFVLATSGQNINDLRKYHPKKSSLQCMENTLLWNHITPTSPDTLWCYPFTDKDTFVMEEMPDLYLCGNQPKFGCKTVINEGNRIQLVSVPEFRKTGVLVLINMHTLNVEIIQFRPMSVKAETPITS
B3: DNA polymerase delta catalytic subunit (Saccharomyces cerevisiae), P15436 (parent)
chain: B1 partner
partner: B1 chain

Here are results for 14 variants from IntAct's records for PubMed 15173383.

The variants in one assay derive from B1. As to conditions: with dpod_yeast POL3, P15436.
For K358E, the “effect of a mutation on the interaction” value is “increasing interaction”.

In another assay the parent is B2. The following applies: with dpod2_schpo cdc1, P87324.
As to C1058S, the “effect of a mutation on the interaction” value is “decreasing interaction”.

For C1058A, the “effect of a mutation on the interaction” value was “decreasing interaction”.

For the variant C1053A, the “effect of a mutation on the interaction” value is “decreasing interaction”.

Consider C1040A, for which the “effect of a mutation on the interaction” value was “decreasing interaction”.

As for C1043A, the “effect of a mutation on the interaction” value was “decreasing interaction”.

In the next assay the parent is B3. As to conditions: with dpod2_yeast POL31, P46957.
As to C1056A, the “effect of a mutation on the interaction” value is recorded as “decreasing interaction”.

Take E1047A: the “effect of a mutation on the interaction” value is given as “decreasing interaction”.

As for C1074A, the “effect of a mutation on the interaction” value is “decreasing interaction”.

Q1057A: the “effect of a mutation on the interaction” value is on record as “decreasing interaction”.

In the case of C1059A, the “effect of a mutation on the interaction” value is “decreasing interaction”.

For the variant C1069A, the “effect of a mutation on the interaction” value is “decreasing interaction”.

As to R1058A, the “effect of a mutation on the interaction” value is recorded as “decreasing interaction”.

With H1064A, the “effect of a mutation on the interaction” value is “decreasing interaction”.
